Measured values reported in the supplement of paper PMC7125110.
± gives the standard error. For some of these results: Variants at the floor of the assay were thinned out.

B1: glmS ribozyme (parent)
chain: AUAAAAGCGCCAGAACUACAGAAAUGUAGUUGACGAGGAGGAGGUUUAUCGAAUUUUCGGCGGAUGCCUCCAAA

Columns and labels:
Settings in all cases: with glucosamine-6-phosphate
[1] = variants of: B1; experiment: kcat; higher = faster cleavage; RNA array
Outline: (§1)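 Glucosamine-6-phosphate in HEPES/KCl/Mg(OAc)2 buffer, at 40 μM to 10 mM, was flowed over barcoded ribozyme variants transcribed in situ by E. coli RNA polymerase on sequenced MiSeq chips. Tracking was through a hybridised Cy3 probe at 37 °C. kobs, kcat and KM came from exponential decay fits and weighted Michaelis–Menten fits of normalised per-tile medians.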

[2] = variants of: B1; experiment: KM; higher = weaker cofactor use; RNA array
Outline: as §1

[3] = variants of: B1; experiment: self-cleavage kobs at 160 uM GlcN6P; higher = faster cleavage; RNA array
Outline: as §1

[4] = variants of: B1; experiment: self-cleavage kobs at 640 uM GlcN6P; higher = faster cleavage; RNA array
Outline: as §1

[5] = variants of: B1; experiment: self-cleavage kobs at 10000 uM GlcN6P; higher = faster cleavage; RNA array
Outline: as §1

[6] = variants of: B1; experiment: self-cleavage kobs at 2500 uM GlcN6P; higher = faster cleavage; RNA array
Outline: as §1

[7] = variants of: B1; experiment: self-cleavage kobs at 40 uM GlcN6P; higher = faster cleavage; RNA array
Outline: as §1

Row | Variant | kcat [1] [s⁻¹] | KM [2] [mM] | self-cleavage kobs at 160 uM GlcN6P [3] [s⁻¹] | self-cleavage kobs at 640 uM GlcN6P [4] [s⁻¹] | self-cleavage kobs at 10000 uM GlcN6P [5] [s⁻¹] | self-cleavage kobs at 2500 uM GlcN6P [6] [s⁻¹] | self-cleavage kobs at 40 uM GlcN6P [7] [s⁻¹]
1 | AUAAAAGCGCCAGAACUACAGAAAUGUAUUUGACGAGGAGGAGGUUUAUCGAAUUUUCGGCGGUUGCCUCCAAA [G29U A64U] | 1.06e-05 ± 2.5e-07 | 4.92 ± 0.3 | < 1e-05 | < 1e-05 |  |  | 
2 | AUAAAAGCGCCAGAACUACAGAAAUGUAUUUGACGAGGAGGAGGUUUAUCGAAUUUUCGGGGGAUGCCUCCAAA [G29U C61G] | 3.41e-05 ± 1.3e-05 |  |  |  | < 1e-05 |  | 
3 | AUAAAAGCGCCAGAACUACAGAAAUGUAUUUGACGAGGAGGAGGUUUAUAGAAUUUUCGGCGGAUUCCUCCAAA [G29U C50A G66U] | 1.4e-05 ± 4.4e-06 |  |  |  |  |  | 
4 | AUAAAAGCGCCAGAACUACAGAAAUGUAUUUGACGAGGAUGAGGUUUAUCGAAUUUUCGGCGGAUGCCUCCAAA [G29U G40U] | 0.000422 ± 3.9e-05 | 1.29 ± 0.22 | 4.21e-05 ± 1.1e-05 | 0.00014 ± 1.5e-05 | 0.000349 ± 4.9e-05 | 0.00032 ± 4.6e-05 | 
5 | AUAAAAGCGCCAGAACUACAGAAAUGUAUUUGACGAGGAGCAGGUUUAUCGAAUUUUCGGCGGAUGCCUCCAAA [G29U G41C] | 4.75e-05 ± 1.3e-05 |  |  |  | 3.1e-05 ± 9e-06 |  | 
6 | AUAAAAGCGCCAGAACUACAGAAAUGUAUUUGACGAGGAGGAGGUUUAUCGAAUUUUCGGCGGAUGCCUGCAAA [G29U C70G] | 7.29e-05 ± 6.3e-06 | 0.354 ± 0.15 |  | 5.02e-05 ± 8.2e-06 | 6.77e-05 ± 7.7e-06 | 6.59e-05 ± 7.1e-06 | 
7 | AUAAAAGCGCCAGAACUACAGAAAUGUAUUUCACGAGGAGGAGGUUUAUCGAAUUUUCGGCGGAUGCCUCCAAA [G29U G32C] | 0.000123 ± 3.9e-06 | 2.73 ± 0.25 |  |  | 9.71e-05 ± 8.4e-06 | 5.78e-05 ± 8.5e-06 | < 1e-05
8 | AUAAAAGCGCCAGAACUACAGAAAUGUAUUUUACGAGGAGGAGGUUUAUCGAAUUUUCGGCGGAUGCCUCCAAA [G29U G32U] | 0.00125 ± 0.00041 | 8.56 ± 4 |  | 0.00011 ± 1.5e-05 | 0.000702 ± 7.1e-05 | 0.000243 ± 3e-05 | 
9 | AUAAAAGCGCCAGAACUACAGAAAUGUAUUUGACGAAGAGGAGGUUUAUCGAAUUUUCGGCGGAUGCCUCCAAA [G29U G37A] | 0.000503 ± 4.3e-05 | 3.47 ± 0.49 |  | 8.23e-05 ± 1.1e-05 | 0.000383 ± 4.6e-05 | 0.000188 ± 3.4e-05 | 
10 | AUAAAAGCGCCAGAACUACAGAAAUGUAUUUGACGAGGAGGAGGUUUAUCGAAUUUUUGGCGGAUGCUUCCAAA [G29U C58U C68U] | 3.99e-05 ± 1.3e-05 |  |  |  |  | 5.55e-05 ± 2.2e-05 | 
